# Results taken from paper PMC8551656, “Discovery of a novel role of tumor suppressor PDCD4 in stimulation of translation termination” (The Journal of Biological Chemistry, 2021).
# B1: GST-tagged programmed cell death 4 protein (PDCD4) (natural protein, human, UniProt Q53EL6-1 1-469, looked up)
# chain: MDVENEQILNVNPADPDNLSDSLFSGDEENAGTEEIKNEINGNWISASSINEARINAKAKRRLRKNSSRDSGRGDSVSDSGSDALRSGLTVPTSPKGRLLDRRSRSGKGRGLPKKGGAGGKGVWGTPGQVYDVEEVDVKDPNYDDDQENCVYETVVLPLDERAFEKTLTPIIQEYFEHGDTNEVAEMLRDLNLGEMKSGVPVLAVSLALEGKASHREMTSKLLSDLCGTVMSTTDVEKSFDKLLKDLPELALDTPRAPQLVGQFIARAVGDGILCNTYIDSYKGTVDCVQARAALDKATVLLSMSKGGKRKDSVWGSGGGQQSVNHLVKEIDMLLKEYLLSGDISEAEHCLKELEVPHFHHELVYEAIIMVLESTGESTFKMILDLLKSLWKSSTITVDQMKRGYERIYNEIPDINLDVPHSYSVLERFVEECFQAGIISKQLRDLCPSRGRKRFVSEGDGGRLKPESY
# notes: human PDCD4, isoform 1, UniProt Q53EL6-1; cDNA cloned into pGEX-6p-1; printed primers run from the start codon to the last codon; Held on glutathione-sepharose by GST in the pull-down; also called GST-PDCD4; recombinant PDCD4; source: E. coli BL21, purified (glutathione-sepharose 4B, eluted with glutathione; HiTrapQ)
# Target: T1, poly(A)-binding protein (PABP) (human, UniProt P11940 1-636)
# T1 construct: source: E. coli BL21, purified (Ni-NTA agarose, ion-exchange chromatography)
# T1 sequence (P11940 whole entry): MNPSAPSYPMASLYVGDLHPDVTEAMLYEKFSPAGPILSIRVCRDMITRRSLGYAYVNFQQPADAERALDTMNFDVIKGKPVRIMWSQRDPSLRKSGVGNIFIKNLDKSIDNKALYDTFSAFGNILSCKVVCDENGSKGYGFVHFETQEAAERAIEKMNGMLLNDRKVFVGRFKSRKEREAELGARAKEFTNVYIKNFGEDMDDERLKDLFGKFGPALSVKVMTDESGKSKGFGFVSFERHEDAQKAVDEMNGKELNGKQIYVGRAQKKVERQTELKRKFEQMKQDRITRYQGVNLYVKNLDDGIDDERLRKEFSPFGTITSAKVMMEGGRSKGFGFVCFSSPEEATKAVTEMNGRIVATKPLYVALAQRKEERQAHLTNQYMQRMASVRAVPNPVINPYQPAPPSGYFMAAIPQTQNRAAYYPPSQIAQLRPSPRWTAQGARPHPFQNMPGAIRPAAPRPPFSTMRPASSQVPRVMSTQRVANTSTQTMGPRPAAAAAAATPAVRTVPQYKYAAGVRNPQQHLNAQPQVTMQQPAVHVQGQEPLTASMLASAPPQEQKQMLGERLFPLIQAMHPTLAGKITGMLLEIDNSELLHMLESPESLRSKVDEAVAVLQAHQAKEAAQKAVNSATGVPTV
# Experiment: pull-down; GST-PDCD4 (40 pmol) incubated with PABP (40 pmol) in solution, 20 μl, 1 h at 4 °C, 25 mM Tris-HCl pH 7.5, 10% glycerol, 100 mM KCl, 2.5 mM MgCl2, 2 mM DTT, 0.25 mM spermidine, 0.2 mM GTP; then held on glutathione-sepharose 4B, four washes, release by TEV protease, western blot
# Conditions: both partners purified
binder,measurement,value
B1,binding result,binds
